Measurements as given in US20150104469A1 (EXTEND BIOSCIENCES, published 2015).

Target: GHS-R receptor
Assay: cell-based or functional assay

GHS-R receptor, sequence (Q92847 whole entry): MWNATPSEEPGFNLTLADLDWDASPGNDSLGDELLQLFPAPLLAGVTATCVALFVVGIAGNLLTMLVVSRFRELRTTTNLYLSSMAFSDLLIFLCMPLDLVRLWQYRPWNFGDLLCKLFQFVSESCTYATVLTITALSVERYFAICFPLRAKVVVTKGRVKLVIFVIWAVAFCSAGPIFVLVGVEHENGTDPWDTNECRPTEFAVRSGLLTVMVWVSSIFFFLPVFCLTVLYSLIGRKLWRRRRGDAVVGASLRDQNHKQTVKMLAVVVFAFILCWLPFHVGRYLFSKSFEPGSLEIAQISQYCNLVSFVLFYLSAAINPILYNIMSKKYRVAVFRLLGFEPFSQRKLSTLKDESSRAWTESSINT

EC50, calcium flux (FLIPR) % activation in GHS-R-expressing CHO-K1 cells: 85 nM
B1: Vitamin D3-PEG-maleimide carrier-conjugated ghrelin from Example 3 (peptide)
peptide: GSSFLSPEHQKAQQRKESKKPPAKLQPRC
modifications: n-octanoyl-Ser at position 3; Vitamin D3-PEG (2 kDa)-maleimide carrier coupled to the free thiol of the added C-terminal cysteine
